This is an account of results in patent US20090137002A1 (published 2009).

Assay [1] deals with T1, recombinant mouse EphB3-Fc fusion protein (mouse, UniProt P54754 30-537, limits assumed).
T1 construct: also called mEphB3; not shown: Fc part, not described
T1 sequence (looked up): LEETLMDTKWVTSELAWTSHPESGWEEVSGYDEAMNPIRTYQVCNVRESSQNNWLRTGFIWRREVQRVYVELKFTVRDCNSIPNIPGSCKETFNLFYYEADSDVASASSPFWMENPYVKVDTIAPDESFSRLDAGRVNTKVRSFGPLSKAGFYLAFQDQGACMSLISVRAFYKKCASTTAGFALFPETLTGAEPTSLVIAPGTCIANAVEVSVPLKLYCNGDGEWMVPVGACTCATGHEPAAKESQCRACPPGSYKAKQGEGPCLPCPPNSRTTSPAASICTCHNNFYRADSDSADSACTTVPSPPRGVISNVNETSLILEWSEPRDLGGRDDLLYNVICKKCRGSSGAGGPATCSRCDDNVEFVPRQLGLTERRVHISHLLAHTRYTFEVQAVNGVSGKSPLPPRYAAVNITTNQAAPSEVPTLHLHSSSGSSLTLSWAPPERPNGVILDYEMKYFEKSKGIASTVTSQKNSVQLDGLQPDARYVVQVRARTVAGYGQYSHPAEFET
Description: ELISA: mEphrinB2-Fc (25 ng/ml) on coated mEphB3-Fc, with or without 100 µg/mL anti-EphB4 Fab. As to the method: Specificity for EphB4 in ELISA: Wells of a 96-well maxisorp-plate were coated overnight with 100 μL recombinant human EphB4 (hEphB4)-, recombinant mouse EphB3 (mEphB3)- or recombinant mouse EphA4 (mEphA4)-Fc fusion protein at a final concentration of 2.5 μg/mL in PBS. Anti-EphB4 Fab fragments (purified, MH-tagged) were added (100 μL/well, 100 μg/mL final concentration in chemiblock) to respective wells and incubated for 1 h at RT. Then 100 μl mEphrinB2-Fc fusion protein either spiked with the respective anti-EphB4 Fab or with PBS was added (25 ng/ml mEphrinB2+/−100 μg/ml Fab diluted in chemiblock) and incubated for max. 20 min at RT. The amount of bound EphrinB2 was detected using biotinylated goat anti-EphrinB2 antibody (0.05 μg/ml final concentration diluted in chemiblock, 1 h at RT), AP-conjugated streptavidin and AttoPhos substrate. Fluorescence was measured (RFU) at 535 nm (430 nm excitation).

In assay [2] the target is T2, myc-tagged human EphB4 on transfected CHO cells (human, UniProt P54760 16-987).
T2 construct: whole, on cells; also called CHO-EphB4; CHO-hEphB4; not shown: myc tag
T2 sequence (looked up): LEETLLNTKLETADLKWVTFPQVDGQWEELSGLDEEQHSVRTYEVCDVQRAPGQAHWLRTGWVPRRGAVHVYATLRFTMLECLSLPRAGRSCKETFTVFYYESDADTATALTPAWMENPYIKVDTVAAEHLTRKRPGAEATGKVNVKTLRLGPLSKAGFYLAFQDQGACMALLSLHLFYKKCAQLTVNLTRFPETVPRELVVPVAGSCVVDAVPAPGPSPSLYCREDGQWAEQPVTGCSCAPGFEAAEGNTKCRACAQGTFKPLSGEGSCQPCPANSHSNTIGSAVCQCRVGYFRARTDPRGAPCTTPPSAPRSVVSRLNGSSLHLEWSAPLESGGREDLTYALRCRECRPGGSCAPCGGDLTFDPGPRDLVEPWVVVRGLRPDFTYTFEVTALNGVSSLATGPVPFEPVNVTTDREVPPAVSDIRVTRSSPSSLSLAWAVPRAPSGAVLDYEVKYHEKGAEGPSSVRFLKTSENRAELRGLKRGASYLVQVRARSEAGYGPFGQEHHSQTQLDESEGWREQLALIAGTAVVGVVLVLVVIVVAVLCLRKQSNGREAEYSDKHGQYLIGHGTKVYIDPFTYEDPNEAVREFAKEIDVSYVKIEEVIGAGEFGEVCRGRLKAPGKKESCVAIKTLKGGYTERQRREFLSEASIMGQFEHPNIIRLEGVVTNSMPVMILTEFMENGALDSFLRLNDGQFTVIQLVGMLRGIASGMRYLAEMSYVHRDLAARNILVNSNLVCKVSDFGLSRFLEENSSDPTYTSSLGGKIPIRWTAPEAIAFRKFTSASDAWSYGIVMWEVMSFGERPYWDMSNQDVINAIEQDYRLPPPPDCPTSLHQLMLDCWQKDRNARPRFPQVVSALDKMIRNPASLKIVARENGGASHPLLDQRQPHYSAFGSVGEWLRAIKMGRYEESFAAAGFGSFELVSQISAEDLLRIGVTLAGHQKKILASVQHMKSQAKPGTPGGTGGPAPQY
Description: FACS titration of IgG4-Pro on CHO-EphB4 cells. The method, then: For the determination of EC50 values, the 12 final IgGs were analyzed on CHO-EphB4 cells in FACS. The EC50 values of the IgGs, determined in two independent experiments, are given in Table 11 and are compared to the EC50 values of the corresponding Fab. […] Again, as already seen for the Fab, the EC50 values of the MOR07310 pool were slightly better than those of the MOR03641 pool.

Assay [3] deals with T2, myc-tagged human EphB4 on transfected …. As to the kind of experiment: FACS, IgG4-Pro inhibition of murine ephrin-B2 binding to CHO-EphB4 cells; n = 1. As to the method:
(§1) C50 values (i.e. IgG4-Pro inhibition of ligand binding) were determined in FACS. […] Receptor-bound ephrin-B2 was detected via biotinylated anti-mouse ephrin-B2 antibody (R&D Systems) and streptavidin-PE. The IC50 values of the IgGs, determined in two independent experiments, are given in Table 11 and are compared to the IC50 values of the corresponding Fab. […] Again, as already seen for the Fab, the IC50 values of the MOR07310 pool were slightly better than those of the MOR03641 pool.

The target is the same in assay [4]. Description: FACS competition on CHO-EphB4 cells, competitor murine ephrin-B2. The method, then:
as §1

For assay [5] the target is unchanged. As to the kind of experiment: FACS, IgG4-Pro inhibition of murine ephrin-B2 binding to CHO-EphB4 cells. As to the method: as §1
On the technique in general: Flow cytometry measures light scatter and fluorescence of single cells or particles in a stream.

B1: mEphrinB2-Fc fusion protein (Fc fusion, mouse, UniProt P52800 27-227, looked up)
chain: ISRSIVLEPIYWNSSNSKFLPGQGLVLYPQIGDKLDIICPKVDSKTVGQYEYYKVYMVDKDQADRCTIKKENTPLLNCARPDQDVKFTIKFQEFSPNLWGLEFQKNKDYYIISTSNGSLEGLDNQEGGVCQTRAMKILMKVGQDASSAGSARNHGPTRRPELEAGTNGRSSTTSPFVKPNPGSSTDGNSAGHSGNNLLGSE
notes: not shown: Fc part, not described
Take B1: the binding result in assay [1] is on record as “binds”.

B2: MOR07728 IgG4-Pro (antibody, V domains shown)
VH: QVELVQSGAEVKKPGSSVKVSCKASGGTFSTYAISWVRQAPGQGLEWMGRIIPIFGTANYAQKFQGRVTITADESTSTAYMELSSLRSEDTAVYYCARSSYTILTTYYNYNAMDNWGQGTLVTVSS
VL: DIQMTQSPSSLSASVGDRVTITCRASQNINNFLNWYQQKPGKAPKLLIYGSSILQSGVPSRFSGSGSGTDFTLTISSLQPEDFATYYCQQNDFYSPSTFGQGTKVEIKR
notes: Fab MOR07728 converted into human IgG4-Pro format
As for B2, in assay [2], the midpoint of the response, the EC50, lay at 1.58 nM and the “EC50 (read off the curve)” value was around 2 nM. In assay [3], the 50% inhibitory concentration (IC50) amounted to 3.26 nM. Besides, the “IC50 (read off the curve)” value in assay [4] was around 3 nM.

B3: MOR07955 IgG4-Pro (antibody, V domains shown)
VH: QVELVQSGAEVKKPGSSVKVSCKASGGTFSTYAISWVRQAPGQGLEWMGKIIPIFGDADYAQKFQGRVTITADESTSTAYMELSSLRSEDTAVYYCARSSYTILTTYYNYNAMDNWGQGTLVTVSS
VL: DIQMTQSPSSLSASVGDRVTITCRASQNINNFLNWYQQKPGKAPKLLIYGSSILQSGVPSRFSGSGSGTDFTLTISSLQPEDFATYYCSQDHFYPPSGTFGQGTKVEIKR
notes: Fab MOR07955 converted into human IgG4-Pro format
In the case of B3, it took 0.51 nM to reach a half-maximal effect in assay [2] (EC50). The molecule further had an IC50 in assay [5] of 0.31 nM.

B4: MOR07957 IgG4-Pro (antibody, V domains shown)
VH: QVELVQSGAEVKKPGSSVKVSCKASGGTFSTYAISWVRQAPGQGLEWMGQIIPIFGDADYAQKFQGRVTITADESTSTAYMELSSLRSEDTAVYYCARSSYTILTTYYNYNAMDNWGQGTLVTVSS
VL: DIQMTQSPSSLSASVGDRVTITCRASQNINNFLNWYQQKPGKAPKLLIYGSSILQSGVPSRFSGSGSGTDFTLTISSLQPEDFATYYCQQNDFYSPSTFGQGTKVEIKR
notes: Fab MOR07957 converted into human IgG4-Pro format
B4: the response in assay [2] was half-maximal at 0.36 nM (EC50). In addition, the half-inhibitory concentration (IC50) in assay [5] turned out to be 0.79 nM.

B5: MOR07956 IgG4-Pro (antibody, V domains shown)
VH: QVELVQSGAEVKKPGSSVKVSCKASGGTFSTYAISWVRQAPGQGLEWMGKIIPIFGDADYAQKFQGRVTITADESTSTAYMELSSLRSEDTAVYYCARSSYTILTTYYNYNAMDNWGQGTLVTVSS
VL: DIQMTQSPSSLSASVGDRVTITCRASQNINNFLNWYQQKPGKAPKLLIYGSSILQSGVPSRFSGSGSGTDFTLTISSLQPEDFATYYCQQYDFYLSGTFGQGTKVEIKR
notes: Fab MOR07956 converted into human IgG4-Pro format
Turning to B5, the 50% effective concentration (EC50) in assay [2] is 0.34 nM. For the same molecule, the IC50 in assay [3] is 0.43 nM.

B6: MOR07953 IgG4-Pro (antibody, V domains shown)
VH: QVELVESGGGLVQPGGSLRLSCAASGFTFNNAWMSWVRQAPGKGLEWVSAINAKGQFTSYADSVKGRFTISRDNSKNTLYLQMNSLRAEDTAVYYCARKGMSFYNNKYAKSMFDLWGQGTLVTVSS
VL: DIELTQPPSVSVAPGQTARISCSGDNLGKKYVHWYQQKPGQAPVLVIYYDSKRPSGIPERFSGSNSGNTATLTISGTQAEDEADYYCQTWTLSHMGNVFGGGTKLTVLG
notes: Fab MOR07953 converted into human IgG4-Pro format
In the case of B6, in assay [2], a half-maximal response (EC50) required 0.17 nM and the “EC50 (read off the curve)” value is around 0.1 nM. In assay [5], this molecule showed an IC50 of 0.23 nM. Also, the “IC50 (read off the curve)” value in assay [4] is around 0.3 nM.

B7: MOR07724 IgG4-Pro (antibody, V domains shown)
VH: QVQLVESGGGLVQPGGSLRLSCAASGFTFNNAWMSWVRQAPGKGLEWVSGISADGVHKFYADSVKGRFTISRDNSKNTLYLQMNSLRAEDTAVYYCARKGMSFYNNKYAKSMFDLWGQGTLVTVSS
VL: DIELTQPPSVSVAPGQTARISCSGDNLGKKYVHWYQQKPGQAPVLVIYYDSKRPSGIPERFSGSNSGNTATLTISGTQAEDEADYYCSAWTTTMMHIVFGGGTKLTVLG
notes: Fab MOR07724 converted into human IgG4-Pro format
In assay [2], B7 showed an EC50 of 0.18 nM. In assay [5], the half-inhibitory concentration (IC50) stood at 0.1 nM. The “IC50 (read off the curve)” value in assay [4] was around 0.1 nM.

B8: MOR07721 IgG4-Pro (antibody, V domains shown)
VH: QVQLVESGGGLVQPGGSLRLSCAASGFTFNNAWMSWVRQAPGKGLEWVSTIEAKMPNGATFYAAPVKGRFTISRDNSKNTLYLQMNSLRAEDTAVYYCARKGMSFYNNKYAKSMFDLWGQGTLVTVSS
VL: DIELTQPPSVSVAPGQTARISCSGDNLGKKYVHWYQQKPGQAPVLVIYYDSKRPSGIPERFSGSNSGNTATLTISGTQAEDEADYYCSAWTTTMMHIVFGGGTKLTVLG
notes: Fab MOR07721 converted into human IgG4-Pro format
For B8, in assay [2], the half-maximal effective concentration (EC50) is 0.12 nM. In addition, in assay [5], the concentration for half-maximal inhibition (IC50) amounted to 0.16 nM and the “fold improvement of IC50 compared to the corresponding Fab” value amounted to 6 fold. For the same molecule, in assay [4], the “IC50 (read off the curve)” value was around 0.1 nM.

As usually defined, the EC50 is the midpoint of the concentration-response curve. Low readings indicate greater potency, high ones weaker potency. As usually defined, the EC50 (read off the curve) is the concentration giving half of the maximal effect. A higher EC50 (read off the curve) goes with weaker potency. Usually IC50 stands for the midpoint of a concentration-inhibition curve. Read a high IC50 as weaker potency.
